# The Human Domainome abundance scans (Beltran et al. 2025)
# ± gives the uncertainty stated by the source.
# B1: Double-stranded RNA-specific adenosine deaminase, residues 296 to 358; numbered along this chain, P55265 (parent)
# chain: MAEIKEKICDYLFNVSDSSALNLAKNIGLTKARDINAVLIDMERQGDVYRQGTTPPIWHLTDK
# Variants of: B1
# Assay: abundance fitness (aPCA) (normalised: wild type 0, dead -1); higher = more abundant; growth selection in yeast, the domain comes from the species named
# Conditions: Homo sapiens
row,Variant,abundance fitness
1,MAEIKEKICDYLFNVDDSSALNLAKNIGLTKARDINAVLIDMERQGDVYRQGTTPPIWHLTDK,-0.342 ± 0.074
2,MAEIKEKICDYLFNVPDSSALNLAKNIGLTKARDINAVLIDMERQGDVYRQGTTPPIWHLTDK,-0.1 ± 0.062
3,MAEIKEKICDYLFNVTDSSALNLAKNIGLTKARDINAVLIDMERQGDVYRQGTTPPIWHLTDK,-0.407 ± 0.064
4,MAEIKCKICDYLFNVSDSSALNLAKNIGLTKARDINAVLIDMERQGDVYRQGTTPPIWHLTDK,-0.654 ± 0.21
5,MAEIKEKICDYLFNVSDSSALNLAKNIGLTKARIINAVLIDMERQGDVYRQGTTPPIWHLTDK,-0.422 ± 0.13
6,MAEIKEKICDYLFNVSDSSALNLAKNIGLTKARDINAVLIDMERQGDVYRQGTTNPIWHLTDK,-0.006 ± 0.073
7,MAEIKEKICDYLFNVSDSSALNLAKNIGLTKARDINAVLIDMERQGDVYRQGTTSPIWHLTDK,-0.288 ± 0.057
8,MAEIKEKICDYLFNVSDSSALNLAKNIGLTKARDINAVLIDMERQGDVTRQGTTPPIWHLTDK,0.135 ± 0.048
9,MCEIKEKICDYLFNVSDSSALNLAKNIGLTKARDINAVLIDMERQGDVYRQGTTPPIWHLTDK,-0.393 ± 0.086
10,MPEIKEKICDYLFNVSDSSALNLAKNIGLTKARDINAVLIDMERQGDVYRQGTTPPIWHLTDK,-0.335 ± 0.078
11,MAEIKEKICDYLFNVSDSSALNLAKNIGLTKARDCNAVLIDMERQGDVYRQGTTPPIWHLTDK,-0.348 ± 0.056
12,MAEIKEKICDYWFNVSDSSALNLAKNIGLTKARDINAVLIDMERQGDVYRQGTTPPIWHLTDK,-1.01 ± 0.24
13,MAEIKEKICDYQFNVSDSSALNLAKNIGLTKARDINAVLIDMERQGDVYRQGTTPPIWHLTDK,-0.512 ± 0.16
14,MAEIKEKICDYLFNVSDSSALNLAKNIGLTKARDINAVLIDMERQGDVYRQTTTPPIWHLTDK,-0.659 ± 0.081
15,MAEIKEKICDYLFNVSDSSALNLAKNIGLTKARDINAVLIDMERQGDVYRQFTTPPIWHLTDK,-0.901 ± 0.14
16,MAEIKEKICDYLFNVSDSSALNLAKNIGLTKARDINADLIDMERQGDVYRQGTTPPIWHLTDK,-0.254 ± 0.17
17,MAEIKEKICDYLFNVSDSSALNLAKNIGLTKARDINAELIDMERQGDVYRQGTTPPIWHLTDK,-0.13 ± 0.06
18,MAEIKEKACDYLFNVSDSSALNLAKNIGLTKARDINAVLIDMERQGDVYRQGTTPPIWHLTDK,-0.564 ± 0.13
19,MAEIKEKICDYLFNVSDSSALNLAKNIGLTKARDILAVLIDMERQGDVYRQGTTPPIWHLTDK,-0.282 ± 0.049
20,MAEIKEKICDYLFNVSDSSALNLAKNIGLTKARDIAAVLIDMERQGDVYRQGTTPPIWHLTDK,-0.497 ± 0.072
21,MAEIKEKICDYLFNVSDSSALNLAKNIGLTKARDINAVLIDMERQGDVYRQGTTPPIWLLTDK,-0.613 ± 0.063
22,MAEIKEKICDYLFNVSDSSALNLAKNIGLTKARDINAVLIDMERQGDVYLQGTTPPIWHLTDK,-0.684 ± 0.065

row,Variant,abundance fitness
1,MAEIKEKICDYLFNVSDSSALNLAKNIGLTKARDINAVLIDMERQGDVYHQGTTPPIWHLTDK,-0.274 ± 0.075
2,MAEIKEKICDYLFNVSDSSALNLAKNIGLTKARDINAVLIDMERQGDVYRQGTSPPIWHLTDK,0.127 ± 0.05
3,MAEIKEKICDYLFNVSDSSALNLAKNIGLTKARDINAVLIDMERQGDVYRQGTCPPIWHLTDK,-0.148 ± 0.087
4,MAEIKEKICDYLFPVSDSSALNLAKNIGLTKARDINAVLIDMERQGDVYRQGTTPPIWHLTDK,-0.658 ± 0.087
5,MAEIKEKICDYLFVVSDSSALNLAKNIGLTKARDINAVLIDMERQGDVYRQGTTPPIWHLTDK,-0.31 ± 0.034
6,MAEIKEKICAYLFNVSDSSALNLAKNIGLTKARDINAVLIDMERQGDVYRQGTTPPIWHLTDK,-0.021 ± 0.041
7,MAEIKEKICLYLFNVSDSSALNLAKNIGLTKARDINAVLIDMERQGDVYRQGTTPPIWHLTDK,-0.568 ± 0.053
8,MAEIKEKICDYLFNVSDSSALNLAKYIGLTKARDINAVLIDMERQGDVYRQGTTPPIWHLTDK,-0.114 ± 0.077
9,MAEIKEKICDYLFNVSDSSALNLAKAIGLTKARDINAVLIDMERQGDVYRQGTTPPIWHLTDK,0.189 ± 0.047
10,MAEIKEKICDYLFNYSDSSALNLAKNIGLTKARDINAVLIDMERQGDVYRQGTTPPIWHLTDK,-0.202 ± 0.096
11,MAEIKEKICDYLFNQSDSSALNLAKNIGLTKARDINAVLIDMERQGDVYRQGTTPPIWHLTDK,-0.288 ± 0.077
12,MAEIKEKICDYLFNVSDSSALNLAKNIGLTKARDINAVLIDMERQGDVYRQGTTPPIWHLTKK,0.002 ± 0.057
13,MAEIKEKICDYLFNVSDSSRLNLAKNIGLTKARDINAVLIDMERQGDVYRQGTTPPIWHLTDK,-0.615 ± 0.051
14,MAEIKEKICDYLFNVSDSSHLNLAKNIGLTKARDINAVLIDMERQGDVYRQGTTPPIWHLTDK,-0.578 ± 0.091
15,MAEIKEKICDYLFNVSDSSALNLAKNIGLTKARDINAVLIDMECQGDVYRQGTTPPIWHLTDK,-0.6 ± 0.1
16,MAEKKEKICDYLFNVSDSSALNLAKNIGLTKARDINAVLIDMERQGDVYRQGTTPPIWHLTDK,-0.2 ± 0.084
17,MAETKEKICDYLFNVSDSSALNLAKNIGLTKARDINAVLIDMERQGDVYRQGTTPPIWHLTDK,-0.24 ± 0.054
18,MAEIKEKICDYLFNVSDSSALNLAKNIGLTKARDINAVLIDMERQGDVYRQGTTPPIVHLTDK,-0.488 ± 0.053
19,MAEIKEKICDYLFNVSDSSALNLAKNIGLTKARDINAVLIDMERQGDVYRQGTTPPIFHLTDK,-0.234 ± 0.11
20,MAEIKEKICDYLFNVSDSSALNLAKNIGLTKARDINAVLIDMERQGDVYRQGTTPPIRHLTDK,-0.242 ± 0.054
21,MAEIKEKICDYLFNVSDSSALNLAKNIGLTKARDINAVLIDMERCGDVYRQGTTPPIWHLTDK,-0.053 ± 0.058
22,MAEIKEKICDYLFNVSDSSALNLAKNIGLTKARDINAVLIDMERNGDVYRQGTTPPIWHLTDK,0.033 ± 0.049

row,Variant,abundance fitness
1,MAEIKEKICDYLFNVSDSSALNLAKNIGLTKARDINAVLIDMERGGDVYRQGTTPPIWHLTDK,-0.778 ± 0.12
2,SAEIKEKICDYLFNVSDSSALNLAKNIGLTKARDINAVLIDMERQGDVYRQGTTPPIWHLTDK,-0.034 ± 0.066
3,MAEIKEKICDCLFNVSDSSALNLAKNIGLTKARDINAVLIDMERQGDVYRQGTTPPIWHLTDK,-0.22 ± 0.076
4,MAEIKEKICDKLFNVSDSSALNLAKNIGLTKARDINAVLIDMERQGDVYRQGTTPPIWHLTDK,-0.256 ± 0.057
5,MAEIKEKICDYLFNVSDSSALNLAKNIGLTKARDINAVLIDMERQGDVYRTGTTPPIWHLTDK,0.494 ± 0.052
6,MAEIKEKICDYLFNVSDSSALNLAKNIGLTKARDINAVLIDMERQGDVYRNGTTPPIWHLTDK,-0.051 ± 0.084
7,MAHIKEKICDYLFNVSDSSALNLAKNIGLTKARDINAVLIDMERQGDVYRQGTTPPIWHLTDK,-0.285 ± 0.075
8,MAEIKEKICDYLFNVSDSSALNLAKNIGLTKARDINAVLIDMERQGDPYRQGTTPPIWHLTDK,-0.507 ± 0.075
9,MAEIKEKICDYLNNVSDSSALNLAKNIGLTKARDINAVLIDMERQGDVYRQGTTPPIWHLTDK,0.366 ± 0.1
10,MAEIKEKICDYLWNVSDSSALNLAKNIGLTKARDINAVLIDMERQGDVYRQGTTPPIWHLTDK,-0.051 ± 0.055
11,MAEIKEKICDYLANVSDSSALNLAKNIGLTKARDINAVLIDMERQGDVYRQGTTPPIWHLTDK,0.543 ± 0.051
12,MAEIKEKICDYLFNVSDSSALNLALNIGLTKARDINAVLIDMERQGDVYRQGTTPPIWHLTDK,-0.404 ± 0.056
13,MAEIKEKICDYLFNVSDSSALNLATNIGLTKARDINAVLIDMERQGDVYRQGTTPPIWHLTDK,-0.32 ± 0.058
14,MAEIKEKICDYLFNVSDSSALNLASNIGLTKARDINAVLIDMERQGDVYRQGTTPPIWHLTDK,-0.542 ± 0.06
15,MAEIKEKICDYLFNVSDSSALNLAKNIGLTKARDINAVLIDMERQGCVYRQGTTPPIWHLTDK,-0.096 ± 0.12
16,MAEIKEKICDYLFNVSDSSALNLAKNIGLTKARDINAVLIDMERQGGVYRQGTTPPIWHLTDK,-0.881 ± 0.13
17,MAEIKEKICDYLFNVSDSSALNLAKNIGLTKARDINAVLIDMERQGNVYRQGTTPPIWHLTDK,-0.322 ± 0.094
18,MAEIKEKICDYLFNVSDSSALNLAKNIGLTKARDINAVLIDMERQGAVYRQGTTPPIWHLTDK,-0.117 ± 0.052
19,MAEIKEKICDYLFNVSDSSALNLAKNIGLTKARDINAVLIDMERQGRVYRQGTTPPIWHLTDK,0.046 ± 0.052
20,MAEIKEKICDYLFNVSDSSALNLGKNIGLTKARDINAVLIDMERQGDVYRQGTTPPIWHLTDK,-0.495 ± 0.047
21,MAEIKEKICDYLFNVSDSSALNLRKNIGLTKARDINAVLIDMERQGDVYRQGTTPPIWHLTDK,-0.544 ± 0.058
22,MAEIKEKICDYLFNVSDSSALLLAKNIGLTKARDINAVLIDMERQGDVYRQGTTPPIWHLTDK,-0.479 ± 0.042

row,Variant,abundance fitness
1,MAEIKEKICDYLFNVSDSSALQLAKNIGLTKARDINAVLIDMERQGDVYRQGTTPPIWHLTDK,0.162 ± 0.099
2,MAEIKEIICDYLFNVSDSSALNLAKNIGLTKARDINAVLIDMERQGDVYRQGTTPPIWHLTDK,-0.779 ± 0.11
3,MAEIKENICDYLFNVSDSSALNLAKNIGLTKARDINAVLIDMERQGDVYRQGTTPPIWHLTDK,-0.534 ± 0.08
4,MAEIKEKICDYLFNVSDSSALNLAKNIGLTKARDINAVLIDMERQPDVYRQGTTPPIWHLTDK,-0.778 ± 0.1
5,MAEIYEKICDYLFNVSDSSALNLAKNIGLTKARDINAVLIDMERQGDVYRQGTTPPIWHLTDK,-0.79 ± 0.11
6,MAEIREKICDYLFNVSDSSALNLAKNIGLTKARDINAVLIDMERQGDVYRQGTTPPIWHLTDK,-0.118 ± 0.052
7,MAEIKEKICDYLFNVSDSSALNLAKNIGLTKARDINAVLIEMERQGDVYRQGTTPPIWHLTDK,0.223 ± 0.13
8,MAEIKEKICDYLFNVSDSSALNLAKNIGLTKARDINAVLIAMERQGDVYRQGTTPPIWHLTDK,-0.315 ± 0.062
9,MAEIKEKICDYLFNVSDSSALNLAKNIGLTKARDINAVLILMERQGDVYRQGTTPPIWHLTDK,-0.99 ± 0.11
10,MAEIKEKICDYLFNVSDSSALNLAKNVGLTKARDINAVLIDMERQGDVYRQGTTPPIWHLTDK,-0.162 ± 0.059
11,MAEIKEKICDYLFNVSDSSALNLAKNGGLTKARDINAVLIDMERQGDVYRQGTTPPIWHLTDK,-0.611 ± 0.07
12,MAEIKEKICDYLFNVSDRSALNLAKNIGLTKARDINAVLIDMERQGDVYRQGTTPPIWHLTDK,-0.721 ± 0.056
13,MAEIKEKICDYLFNVSDSSALNLAKNIGLTNARDINAVLIDMERQGDVYRQGTTPPIWHLTDK,0.144 ± 0.092
14,MAEIKEKICDYLFNVSDSSALNLAKNIGLTLARDINAVLIDMERQGDVYRQGTTPPIWHLTDK,-0.53 ± 0.07
15,MAEIKEKICDYLFNVSDSSALNLAKNIGLTKARDINAVLIDMERQGDVYRQGTTPPIWHLTDN,-0.302 ± 0.14
16,MAEIKEKICDYLFNVSDSSALNLAKNIGLTKARDINAVLIDMERQGDVYRQGTTPPIWHLTDD,-0.162 ± 0.23
17,MAEIKEKICDYLFNVSDSSALNLAKNIGLTKARDINAVLIDMERQGDVYRQGTTPPIWHLTDG,-0.442 ± 0.15
18,MAEIKEKICDYLFNVSDSSALNLAKNIGLTKARDINAVLIDMERQGDVYRQGTTPPIWHLTDC,-0.258 ± 0.13
19,MAEIKEKICDYLFNVSDSSALNLAKNIGLTKARDINAVLIDMERQGDVYRQGTTPPMWHLTDK,-0.008 ± 0.062
